In patent US20230011234A1 (JOINT STOCK COMPANY BIOCAD, published 2023):

Legend:
[1] = target: T1, PD-L1-Fc receptor (human, UniProt Q9NZQ7 19-238, limits assumed); experiment: BLI (OctetRed 96), PD-L1-Fc in solution; Response 0 and KD 0
T1 construct: also called human PD-L1 receptor; not shown: Fc
Protocol: (§1) The affinity constants for binding of IL15SA bispecific immunocytokines (hereinafter referred to as anti-PD1-Fab-CK_IL15Ra_Hc_IL15CH1FcknobLALA anti-PD-L1-Fab-CK_IL15Ra_Hc_IL15CH1FcknobLALA) to IL2βγ and human PD-1/PD-L1 receptors were measured using OctetRed 96 according to the ForteBio instructions. AR2G biosensors were pre-rehydrated for an hour in mQ. After the activation of biosensors, the bispecific immunocytokines at a concentration of 25 μg/ml in acetate buffer pH4 were non-specifically (by NH₂ groups) immobilized onto the biosensor. The sensors were then immersed into wells containing Human CD122/IL-2RB Protein (Fc Tag) or PD-1-Fc receptor or PD-L1-Fc receptor (1 and 0.5 μg/ml) in PBS buffer supplemented with 0.1% Tween-20 and 0.1% BSA to associate the bispecific super-agonist and the test receptor. The sensors were then immersed in a buffer solution for a subsequent dissociation step.
(§2) The instrumental data, after subtracting a reference signal, were analyzed using Octet Data Analysis software (Version 8.0) in accordance with the standard procedure and using 1:1 interaction model.

[2] = target: T2, Human CD122/IL-2RB Protein (Fc Tag) (human, UniProt P14784 27-240); experiment: BLI (OctetRed 96), CD122/IL-2RB-Fc in solution; Response 0 and KD 0
T2 construct: No gamma chain is mentioned; also called human IL2βγ; human IL2βγ-Fc; not shown: Fc tag
T2 sequence (looked up): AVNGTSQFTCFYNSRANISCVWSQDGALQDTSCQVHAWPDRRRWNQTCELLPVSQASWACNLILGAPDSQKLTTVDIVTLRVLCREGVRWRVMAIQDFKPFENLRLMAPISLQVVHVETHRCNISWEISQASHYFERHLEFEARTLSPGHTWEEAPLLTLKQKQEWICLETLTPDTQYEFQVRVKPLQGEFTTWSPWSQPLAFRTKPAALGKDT
Protocol: as §1, §2

[3] = target: T3, PD-1-Fc receptor (human, UniProt Q15116 25-167, limits assumed); experiment: BLI (OctetRed 96), PD-1-Fc in solution, 1:1 model
T3 construct: also called human PD-1 receptor; not shown: Fc
T3 sequence (Q15116 25-167 limits assumed): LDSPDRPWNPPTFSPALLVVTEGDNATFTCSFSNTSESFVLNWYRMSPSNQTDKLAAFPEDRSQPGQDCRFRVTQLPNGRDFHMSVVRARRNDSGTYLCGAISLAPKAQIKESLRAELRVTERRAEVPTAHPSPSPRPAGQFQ
Protocol: as §1, §2

[4] = target: PD-1 on Jurkat NFAT-FLuc PD-1 cells (UniProt Q15116 25-288, limits assumed); experiment: cell-based or functional assay
PD-1 on Jurkat NFAT-FLuc PD-1 cells, sequence (Q15116 25-288 limits assumed): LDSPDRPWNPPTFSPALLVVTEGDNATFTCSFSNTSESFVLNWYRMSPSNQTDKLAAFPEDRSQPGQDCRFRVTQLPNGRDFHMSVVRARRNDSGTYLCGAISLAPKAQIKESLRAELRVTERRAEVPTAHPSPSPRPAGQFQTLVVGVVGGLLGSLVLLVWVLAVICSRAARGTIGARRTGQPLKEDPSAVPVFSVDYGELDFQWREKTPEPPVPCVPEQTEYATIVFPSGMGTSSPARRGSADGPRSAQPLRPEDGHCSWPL

[5] = target: T1, PD-L1-Fc receptor; experiment: BLI (OctetRed 96), PD-L1-Fc in solution, 1:1 model

T1 sequence (Q9NZQ7 19-238 limits assumed): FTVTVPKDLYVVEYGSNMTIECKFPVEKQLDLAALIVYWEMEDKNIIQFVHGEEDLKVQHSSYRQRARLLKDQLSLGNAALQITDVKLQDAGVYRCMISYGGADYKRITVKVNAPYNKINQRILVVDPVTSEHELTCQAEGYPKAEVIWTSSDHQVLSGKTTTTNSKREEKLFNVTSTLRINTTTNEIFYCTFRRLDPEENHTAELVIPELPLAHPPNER

B1: prolgolimab (antibody, V domains shown)
VH: QVQLVQSGGGLVQPGGSLRLSCAASGFTFSSYWMYWVRQVPGKGLEWVSAIDTGGGRTYYADSVKGRFAISRVNAKNTMYLQMNSLRAEDTAVYYCARDEGGGTGWGVLKDWPYGLDAWGQGTLVTVSS
VL: QPVLTQPLSVSVALGQTARITCGGNNIGSKNVHWYQQKPGQAPVLVIYRDSNRPSGIPERFSGSNSGNTATLTISRAQAGDEADYYCQVWDSSTAVFGTGTKLTVLQ
notes: also called Anti-PD-1 prologolimab; BCD100
Question: Does B1 bind [1]?
Answer: no binding (tested: 1 and 0.5 µg/ml)

Question: Does B1 bind [2]?
Answer: no binding (tested: 1 and 0.5 µg/ml)

Question: What about the Kd [3] of the same binder?
Answer: 186 pM

Question: What about the “EC50; NFAT-luciferase luminescence (RLU x 10^-3) in co-culture of Jurkat NFAT-FLuc PD-1 cells and Raji PDL1 cells with aCD3/aTAA1 at 1 ng/ml; relief of PD-1/PDL1 inhibition” value [4] of the same binder?
Answer: 0.027 µg/mL

B2: BCD-135 (antibody)
chain 1: not shown
chain 2: QTVVTQEPSLSVSPGGTVTLTCGLSSGTVTAINYPGWYQQTPGQAPRTLIYNTNTRHSGVPDRFSGSISGNKAALTITGAQAEDEADYYCALYMGNGGHMFGGGTKLTVLGQPKAAPSVTLFPPSSEELQANKATLVCLISDFYPGAVTVAWKADSSPVKAGVETTTPSKQSNNKYAASSYLSLTPEQWKSHRSYSCQVTHEGSTVEKTVAPTECS
Question: B2 was tested. Which Kd [5] did it give?
Answer: < 1 pM
